Reference: US7374923B2, “Polypeptide” (Astellas Pharma Inc., priority 2002, dated 2008)

B1: MD8S protein: extracellular region of human MD8 protein, 1st to 646th amino acids of SEQ ID NO: 2, with C-terminal FLAG tag (protein, listed as Homo sapiens)
chain: MRGLGLWLLGAMMLPAIAPSRPWALMEQYEVVLPRRLPGPRVRRALPSHLGLHPERVSYVLGATGHNFTLHLRKNRDLLGSGYTETYTAANGSEVTEQPRGQDHCFYQGHVEGYPDSAASLSTCAGLRGFFQVGSDLHLIEPLDEGGEGGRHAVYQAEHLLQTAGTCGVSDDSLGSLLGPRTAAVFRPRPGDSLPSRETRYVELYVVVDNAEFQMLGSEAAVRHRVLEVVNHVDKLYQKLNFRVVLVGLEIWNSQDRFHVSPDPSVTLENLLTWQARQRTRRHLHDNVQLITGVDFTGTTVGFARVSAMCSHSSGAVNQDHSKNPVGVACTMAHEMGHNLGMDHDENVQGCRCQERFEAGRCIMAGSIGSSFPRMFSDCSQAYLESFLERPQSVCLANAPDLSHLVGGPVCGNLFVERGEQCDCGPPEDCRNRCCNSTTCQLAEGAQCAHGTCCQECKVKPAGELCRPKKDMCDLEEFCDGRHPECPEDAFQENGTPCSGGYCYNGACPTLAQQCQAFWGPGGQAAEESCFSYDILPGCKASRYRADMCGVLQCKGGQQPLGRAICIVDVCHALTTEDGTAYEPVPEGTRCGPEKVCWKGRCQDLHVYRSSNCSAQCHNHGVCNHKQECHCHAGWAPPHCAKLLTE
modifications: C-terminal FLAG tag

What was measured:
MD8S protein = test: Inhibition of digestion of recombinant IGFBP-5 by MD8S protein (western blotting); format: biochemical, human
Procedure: The MD8S enzyme solution obtained in Example 8(1) was reacted with recombinant IGFBP-5 obtained in Example 9(1) in a 50 mmol/L tris-HCl (pH7.4) buffer containing 50 mmol/L NaCl, 2 mmol/L CaCl2, 20 μg/mL bovine serum albumin (BSA), and 0.1% CHAPS at 37° C. overnight. In this connection, concentrations of the MD8S protein and recombinant IGFBP-5 in the reaction solution were 1.5 μg/mL and 10 μg/mL, respectively.
Using an aliquot of the reaction solution, SDS-PAGE was carried out, and then a transfer to a PVDF membrane and blocking was carried out. Recombinant IGFBP-5 was detected by reacting a biotinylated M2 antibody (Sigma) as the first antibody, followed by a horseradish peroxidase-labeled streptavidin (Amersham) as the second antibody, and by using an ECL Western Blotting Detecting System (Amersham Pharmacia).
Substances inhibiting the activity of digesting IGFBP-5 by the MD8S protein can be screened by the reaction system utilizing western blotting performed in Example 9(2). In this Example, the procedure described in Example 9(2) was repeated, except that various compounds having a hydroxamic acid scaffold as a compound to be tested were added to the reaction system containing the MD8S enzyme solution and recombinant IGFBP-5, to measure an inhibitory intensity of the activity of digesting IGFBP-5. […]

IGFBP-3 = test: Activity of digesting IGFBP-3 by MD8S protein; format: biochemical; details: commercial IGFBP-3 10 μg/mL, MD8S 1.5 μg/mL, 37° C. overnight; new band of 25 kDa
Procedure: (§1) The MD8S enzyme solution obtained in Example 8(1) was reacted with commercially available IGFBP-3 or IGFBP-5 (upstate biotechnology) in a 50 mmol/L tris-HCl(pH7.4) buffer containing 50 mmol/L NaCl, 2 mmol/L CaCl2, 20 μg/mL bovine serum albumin (BSA), and 0.1% CHAPS at 37° C. overnight. In this connection, concentrations of the MD8S protein and IGFBP-3 (or IGFBP-5) in the reaction solution were 1.5 μg/mL and 10 μg/mL, respectively.
(§2) Using an aliquot of the reaction solution, sodium dodecyl sulfate polyacrylamide gel electrophoresis (SDS-PAGE) was carried out, and then a transfer to a PVDF membrane and blocking was carried out. IGFBP-3 was detected using an anti-IGFBP-3 polyclonal antibody (R&D System) as the first antibody and a peroxidase-labeled rabbit anti-goat IgG polyclonal antibody (ZYMED) as the second antibody. IGFBP-5 was detected using an anti-IGFBP-5 polyclonal antibody (upstate biotechnology) as the first antibody and a peroxidase-labeled goat anti-rabbit IgG polyclonal antibody (MBL) as the second antibody.

IGFBP-5 = test: Activity of digesting IGFBP-5 by MD8S protein; format: biochemical, human; details: MD8S 1.5 μg/mL, 37° C. overnight
Procedure: as §1, §2
The MD8S enzyme solution obtained in Example 8(1) was reacted with recombinant IGFBP-5 obtained in Example 9(1) in a 50 mmol/L tris-HCl (pH7.4) buffer containing 50 mmol/L NaCl, 2 mmol/L CaCl2, 20 μg/mL bovine serum albumin (BSA), and 0.1% CHAPS at 37° C. overnight. […]

Molecule | IC50 (MD8S protein; MD8S 1.5 μg/mL, recombinant IGFBP-5 10 μg/mL, 37° C. overnight, western blot image analysis, read-out: intensity of the inhibition activity (IC50) of the activity of digesting IGFBP-5) [µM] | activity of digesting recombinant IGFBP by the MD8S protein in presence of compound (FIG. 3) (MD8S protein; electrophoresis, compound A 1 nmol/L to 10 μmol/L) | activity of digesting IGFBP-3 (IGFBP-3) | activity of digesting IGFBP-5 (IGFBP-5; commercial IGFBP-5 10 μg/mL, new bands 12 to 25 kDa) | activity of digesting recombinant IGFBP-5 (IGFBP-5; recombinant IGFBP-5-FLAG 10 μg/mL)
CCCOCC(C(=O)NC(Cc1ccc(OC)cc1)C(=O)NC)C(CSC)C(=O)O (stereo not drawn) [compound A, N^α-[(3-carboxy-4-methylthio-2-propoxymethyl)butyryl]-N,O-dimethylthyrosineamide] | 3.3 | inhibited |  |  | 
B1 |  |  | exhibits an activity of digesting IGFBP-3 | exhibits an activity of digesting IGFBP-3 and IGFBP-5 | exhibits an activity of digesting IGFBP-5
